Tests used:
CH103 (human) [1] = experiment: SPR; ProteOn XPR36 (Bio-Rad), GLC chip; IgG captured on amine-coupled anti-human capture antibody (Human Antibody Capture Kit), antigen as analyte; 1x HBS-EP+ pH 7.4 with BSA 1 mg/ml; equilibrium or kinetic Langmuir model
[2] = target: CH103 WT with the H2-6 residue at position 67 (E->Y) (human); experiment: as above
[3] = target: H2-6 position 59 mutant (Y->F) (human); experiment: as above
[4] = target: H2-6 position 67 mutant (Y->E) (human); experiment: as above
H2-6 position 67 mutant (Y->E) (human), sequence (heavy, as listed by the source, chain 1 of 2): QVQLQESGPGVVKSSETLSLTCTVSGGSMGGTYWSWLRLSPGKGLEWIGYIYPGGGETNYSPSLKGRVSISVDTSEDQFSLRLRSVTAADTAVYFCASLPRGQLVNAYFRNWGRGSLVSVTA
H2-6 position 67 mutant (Y->E) (human), sequence (light, as listed by the source, chain 2 of 2): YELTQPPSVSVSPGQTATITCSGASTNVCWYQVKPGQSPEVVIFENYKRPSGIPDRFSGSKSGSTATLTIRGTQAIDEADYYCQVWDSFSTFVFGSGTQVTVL

CH103 (human) [5] = experiment: SPR; Biacore 4000, CM5 chip; IgG captured on amine-coupled anti-human capture antibody (Human Antibody Capture Kit), antigen as analyte; 1x HBS-EP+ pH 7.4 with BSA 1 mg/ml; equilibrium or kinetic Langmuir model; apparent KD

CH103 (human), sequence (heavy, as listed by the source, chain 1 of 2): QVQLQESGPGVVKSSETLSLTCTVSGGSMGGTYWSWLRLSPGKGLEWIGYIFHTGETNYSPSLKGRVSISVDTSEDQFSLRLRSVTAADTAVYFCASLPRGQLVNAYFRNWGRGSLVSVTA
CH103 (human), sequence (light, as listed by the source, chain 2 of 2): as the sequence (light, as listed by the source, chain 2 of 2) above
CH103 WT with the H2-6 residue at position 67 (E->Y) (human), sequence (heavy, as listed by the source, chain 1 of 2): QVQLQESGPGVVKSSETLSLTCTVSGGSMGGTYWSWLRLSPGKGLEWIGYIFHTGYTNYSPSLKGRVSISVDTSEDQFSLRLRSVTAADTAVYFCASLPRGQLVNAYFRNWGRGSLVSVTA
CH103 WT with the H2-6 residue at position 67 (E->Y) (human), sequence (light, as listed by the source, chain 2 of 2): as the sequence (light, as listed by the source, chain 2 of 2) above
H2-6 position 59 mutant (Y->F) (human), sequence (heavy, as listed by the source, chain 1 of 2): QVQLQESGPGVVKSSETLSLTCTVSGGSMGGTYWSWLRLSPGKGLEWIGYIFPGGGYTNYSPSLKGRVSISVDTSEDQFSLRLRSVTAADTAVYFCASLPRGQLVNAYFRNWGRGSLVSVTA
H2-6 position 59 mutant (Y->F) (human), sequence (light, as listed by the source, chain 2 of 2): as the sequence (light, as listed by the source, chain 2 of 2) above

Substance | Kd (CH103 (human) [1]) | Kd [2] | Kd [3] | Kd [4] | Kd (CH103 (human) [5])
gp120 Core Bal (domain or fragment) | 1100 nM | 11.7 nM | 12.8 nM | 212 nM | 91 nM
gp120 Core HXB2 (domain or fragment) | 138 nM | 2.3 nM | 2.2 nM | 30.9 nM | 52 nM

— paper PMC5942852
